In a protein production outcome set (Wang et al. 2014) one finds protein production data, which are given here for 18 sequences.

The nature of this data set: label from the status in PepcDB records.
For “SLGELFAVFNEKLTIPEQEALMFLYAYMPTGDVTDYTGDYYLENVRLSDQARREMPWGKEIPDDVFRHFVLPIRVNNENLDDSRRVFYNELKDRVKNLSLHDAVLEVNHWCHEKVIYTPSDARTSAPLASVKTAYGRCGEESTFTVAALRSVGIPARQVYTPRWAHTDDNHAWVEAWVDGKWYFFGACEPEPVLNLGWFNAPASRGMLMHTKVFGRYTGQEEIMYETPNYTEINVIDNYAPTAKGSVLVTDAEGQPVADATVEFKVYNYAEFYTVATKHTDRSGHASLTAGKGDMLVWASKDGRFGYSKLSFGKDNELKITLDKNASETYSLPLDIVPPAEGANLPEVTPEQRTENDRRMAQEDSIRNAYVATFITEEQARTFAKENKLDETETVRLLIASRGNHQTLTDFLSDAVKADKAGQAISLLKVVSAKDLRDVSPEVLNDHLNNSGLPASEDFCSNVLNPRVANEMITPYKAFFRKEIPASEAEAFRKNPQALVEWCKKEITINNELNSQRIPMSPMGVWKARVADEKSRNIFFVSMARSLGIPAWIDEVTGKIQYRTFNDNNLKNGKVYDVDFEAAQQTQAPTGTLVARYRPIPSLSDPKYYSHFTLSKFRNGTFQLLNYDEGDVDMGGGATWSNLLKNGARLDTGYYMMVTGTRMASGAVLANVTFFTIEEGKTTTVDLVMRESKDQVQVIGNFNSESTYLPIGTSEPQSILQTCGRGYYVVAVLGAGQEPTNHALRDIAALSGEFEKWGRKMVLLFPSEEQYKKFRPSEFPGLPSTITYGIDVDGAIQKQIAESMKLPNSTILPMFIIGDTFNRVVFVSQGYTIGLGEQLMKVIHGEG”, the protein production result was “not failed”.

Regarding “SLGEMKRAAIIIDDFGGDVKGVDDFLTGEIPVTVAVMPFLEHSTKQAEIAQAAGLEVIVHMPLEPKKGKISWLGPSGITSNLSVGEVKSRVRKAFDDIPYAVGLNNHMGSKIVENEKIMRAILEVVKEKNAFIIDSGTSPHSLIPQLAEELEVPYATRSIFLDNTHSSRKEVIKNMRKLAKKAKQGSEPIGIGHVGVRGDETYAGIRSMLDEFQAESIQLVPVSQLLPSPIEEDHNKFWQQPFQAKE”, the protein production entry is given as “not failed”.

Regarding “SLHEEADHRVTDHGPRPFVVNIEDETKRNRAFRRALWTGDHLQVTLMSIQVGEDIGLEIHPHLDQFLRVEEGRGLVQMGHRQDNLHFQEEVFDDYAILIPAGTWHNVRNTGNRPLKLYSIYAPPQHPHGTVHETKAIAMAAEEHHHL”, the protein production result is listed as “not failed”.

With “SLIGFLSDRQGFEKQYHDIDLSSFGIREGISEIIASTGFEHPNAAPIGIVMKGERPFVRLFKGSHTWENVLKEKCLASNVVYDPILFVRSTFSDLVPSEFEYVDAGEFKFPVLKEAIAWVVFECINLRNTDQSLVADLVPLNAGFNERNIKELPVPNRGFNAVLEATVHATRYQLTGEEKYLELIRHYESLASKCGGDAEKKAMKLIYEALGL”, the protein production entry is “not failed”.

Regarding “SLKRKLKPKRLQLPPQDVVFEGEAAMNEYTFYRNWVESWLQHIRSYYLLFIDGDPSLSKFFEIEICAHSWKRSTFDQQVFKFGLLWECVDIARSRTVYWQCALGTGHIQEDKVSEATSPFTDDSCTNSCLSRMTGQ”, the protein production entry is “failed”.

Regarding “SLLCGPLRLSESGETWSEVWAAIPMSDPQVLHLQGGSQDGRLPRTIPLPSCKLSVPDPEERLDSGHVWKLQWAKQSWYLSASSAELQQQWLETLSTAAH”, the protein production entry is “not failed”.

Turning to SLMDVKCETPNCPFFMSVNTQPLCHECSERRQKNQN, the protein production result was “not failed”.

In the case of “SLSSTELGDLFWSWLRDGLREGDIPVNTADACVHLTCGFVFISVPGVFFLFLKSHSRSCSSGLKESGRKEQVQAAFEKMRKHRVSDSRRFWQCCLYEEPGGRGRYKKLTGYLIKMSEIYANGNFPDDSLFLKVIN”, the protein production entry is recorded as “not failed”.

For the sequence “SLSTVELSGTVVKQGYLAKQGHKRKNWKVRRFVLRKDPAFLHYYDPSKEENRPVGGFSLRGSLVSALEDNGVPTGVKGNVQGNLFKVITKDDTHYYIQASSKAERAEWIEAIKKLT”, the protein production result was “not failed”.

Consider “SLYGNSSGGTLLTTTKEGQGKDSVELNYSGGSHDKNRTGLILQGGAKQSNQPSYVISSSYFDTDGYREHSAAHKILNNAKLTWNLDDGSKINWITNYVKINADDPQGLTRDQWKANPKQQVPFLQQFDVRKDIEQTQTGVTWSKPINDQNELYMMGYLGNRKVTQYQSIPKSTQDASKNQAGGVIDFERNYYGADLRWTGKELLPNTTFSVGVALDAMDEDRKGYENYVTVNNQPSYGVKGNLRRDEDNTLWNIDPYLQASWQFLPTWRLDTGVRYSNVHYKSDDHFIVIGNTAKDSNPDDSGKTDYSKVLPSAALSWQIVPELLAYVSYAKGFETPTFTEMAYNPDPDLSGFNFGLKASTSDTYEAGLKSQNRLGDFTLAAFQTKTKDDIVSAGSINGRATFRNADRTLREGIEFTWNKQLWRDLVLNTSYAYLNATFDADVPATASVAAITSGNQIPGVAKNQAYASLAWKPQTGFHGGIDAQYNDKIYVDDKNSDAAPSYTVVAAYAGYTWQMQDWKLNVYSRVDNMFDKSYVGSVIVNDGNSRFFEPADGRNWSAGLRVSKQF”, for which the protein production result is “failed”.

As to “SNGQADRCDRTAYVSGLQPTISDIELFEVFNRVAHVEKVIVRNGAARHALIVFKTVQGLYQVLVNFQGTTLHGRQLHIRPLRESSHANSEAISTMFEKVKHQGNSGNSSYRQEHSFPEYRNQNPQASSYLPPNPRGHRNSTGCFNGGGGGYGRRRSAGGYNQYNQNKYPNETYPGMTLFDNHPVQQYSGFNPIDFRFDDYVEGAKRFDNLANLIRSSTPTDPFANYQKPCESTSTSRSRTNSAKDQKHGPPTWKMELQIKKDDHHHAGGGAATTGQKLSPQQFLAQIAQRQQSEQNADEVAKKKRPNLSVINPSLFYEQYPRTSSPVVYASKSKPSGHYDDKIASPHDPAVLAYSRLRVPQSAFDSLSPIDTDNCSFITKHLGPTTGVKRDLTNDELSDMIVSTGNLRINPTNIDHHDEPAPWSPLKRLRAESGSLSTAQVASPEFSPIKPKTMEFHETEDDVFETGPPPTYLSEGNENAEKKCVEQPKINYDDINNSRLPSNSHSAAPNSEKKHFVFPEYPMCRHSSVPSIAHLVGDLSDFCPHATADEKMLLDEASSIIENTTPAVSTAPAAAPGATMLQI”, the protein production entry is recorded as “not failed”.

For the sequence “SQKSLKRGQELNNQYETKAKRLKIDPCLVVDSPFNHGFTAQEILKGAKNNGEISFLIRFWHLDQPQVVPSGIAYVEIPQMVLKFYENHCNFHDYLNNYIS”, the protein production entry is recorded as “failed”.

As for “SQLINLPMDQILYLSTSDIKHHVHLQTIHTLMDIRANLADFKKIHKKLYPCHRSYIVNTDMIISVNKTNYEATLINGQVLPVSRMKIGKIAQIVEERGR”, the protein production result is listed as “not failed”.

Take “SQNSKTPFPEYFWSWFETYKESSVSERTKLTYKNTFNVLKKHLGGIPIEEMDRRLYRKFIAEFGKDHAKSTVSKFNSLYHACVKDAMYDGDMTKDFIAGTDIVYNRKKTRK”: the protein production entry is on record as “failed”.

As for “SQPDHGRLSPPEAPDRPTISTASETSVYVTWIPRGNGGFPIQSFRVEYKKLKKVGDWILATSAIPPSRLSVEITGLEKGISYKFRVRALNMLGESEPSAPSRPYVVSG”, the protein production entry is listed as “not failed”.

In the case of “SRGMTPGSRLIDYQLIDSTEELAAILGCGHPSSIHKITRVRLANDIPMAIESSHIPFELAGELNESHFQSSIYDHIERYNSIPISRAKQELEPSAATTEEANILGIQKGAPVLLIKRTTYLQNGTAFEHAKSVYRGDRYTFVHYMDRLS”, the protein production result is on record as “failed”.

For the sequence “SRGPEPGPQPTMEGDVLDTLEALGYKGPLLEEQALTKAAEGGLSSPEFSELCIWLGSQIKSLCNLEESITSAGRDDLESFQLEISGFLKEMACPYSVLISGDIKDRLKKKEDCLKLLLFLSTELQASQILQNKKHKNSQLDKNSEVYQEVQAMFDTLGIPKSTTSDIPHMLNQVESKVKDILSKVQKNHVGKPLLKMDLNSEQAEQLERINDALSCEYECRRRMLMKRLDVTVQSFGWSDRAKVKTDDIARIYQPKRYALSPKTTITMAHLLAAREDLSKIIRTSSGTSREKTACAINKVGVSFSTVENELMISYLMFLQILVYFSFMSW”, the protein production result is recorded as “not failed”.

On to “SRPRLSQLSVTDVTTSSLRLNWEAPPGAFDSFLLRFGVPSPSTLEPHPRPLLQRELMVPGTRHSAVLRDLRSGTLYSLTLYGLRGPHKADSIQGTARTL”, for which the protein production result is reported as “not failed”.
